Data from paper PMC9582512 (2022).

How the values were obtained:
[1] = biological target: IgG1 F127 pre-complexed with dimeric Fel d 1 (human | cat, UniProt P30438 23-92; P30440 18-109); experiment: BLI; pre-complexed with Fel d 1
[2] = biological target: IgG4 F127 pre-complexed with dimeric Fel d 1 (human | cat, UniProt P30438 23-92; P30440 18-109); experiment: BLI; pre-complexed with Fel d 1

B1: human recombinant biotinylated FcγRIIb (CD32b) (receptor)
chain: TPAAPPKAVLKLEPQWINVLQEDSVTLTCRGTHSPESDSIQWFHNGNLIPTHTQPSYRFKANNNDSGEYTCQTGQTSLSDPVHLTVLSEWLVLQTPHLEFQEGETIVLRCHSWKDKPLVKVTFFQNGKSKKFSRSDPNFSIPQANHSHSGDYHCTGNIGYTLYSSKPVTITVQAP
modifications: biotin (biotinylated; site not stated)
koff [1]: 0.000279 s⁻¹ | koff [2]: 0.000126 s⁻¹
